Molecular target: Full-length human AURKA^T288V (human) (UniProt O14965)
Assay: fluorescence polarisation; competitive displacement: 5 nM FITC-Tpx2^1–43 and 35 nM AURKA kept constant, unlabeled competitor (Bora or Tpx2) varied; 25 mM HEPES pH 7.5, 50 mM NaCl, 10 mM MgCl2, 0.1 mg/mL BSA, 0.01% Brij, 3 mM ADP, 2 mM DTT

Full-length human AURKA^T288V (human), sequence (O14965 other isoform, or with tags, fused parts or gaps T288V | T288V): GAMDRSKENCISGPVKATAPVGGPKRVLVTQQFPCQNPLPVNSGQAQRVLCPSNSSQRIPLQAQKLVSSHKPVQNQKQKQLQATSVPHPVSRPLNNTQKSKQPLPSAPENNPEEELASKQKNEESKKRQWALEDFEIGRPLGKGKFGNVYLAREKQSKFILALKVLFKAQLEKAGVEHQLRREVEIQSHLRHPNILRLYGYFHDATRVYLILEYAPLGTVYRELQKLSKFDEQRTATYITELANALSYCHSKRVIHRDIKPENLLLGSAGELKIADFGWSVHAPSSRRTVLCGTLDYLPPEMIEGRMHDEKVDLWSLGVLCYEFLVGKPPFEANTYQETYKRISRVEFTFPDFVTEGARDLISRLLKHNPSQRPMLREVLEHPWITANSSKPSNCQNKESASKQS

- fold less efficient displacement of FITC-Tpx2^1–43 than pBora^1–224: 20 fold
Substance: pBora^18–120 (from UniProt Q6PGQ7 18-120) (domain or fragment)
